The target in experiment [1] is T1, nerve growth factor (NGF) (UniProt P01138 122-241, limits assumed, iodinated (125I) where used as tracer).
T1 construct: also called 125I-NGF; labelled NGF
Briefly: NGF binding to immunoadhesin (competitive displacement, as in Example 4).

Experiment [2] concerns the target T2, trkB-IgG immunoadhesin (human trkB extracellular domain fused to human IgG-1 Fc) (human).
T2 construct: also called chimeras containing trkB
In words: competitive displacement of iodinated BDNF from trkB-IgG by unlabelled BDNF.

Experiment [3] concerns the target T1, nerve growth factor (NGF). In words: saturation binding with 125I-NGF, immunoadhesin.
Experiment [4] addresses T2, trkB-IgG immunoadhesin (human trkB …). In words: competitive displacement of iodinated BDNF from trkB-IgG by unlabelled NT3.
Experiment [5] deals with T3, trkA-IgG immunoadhesin (human trkA extracellular domain fused to human IgG-1 Fc) (human, UniProt P04629 33-408).
T3 construct: also called native trkA; chimeras containing trkA extracellular domain; not shown: human IgG-1 hinge-CH2-CH3 (aspartic acid 216 to residue 441)
Briefly: competitive displacement of iodinated NGF from trkA-IgG by unlabelled NT3.

T2 sequence (Q16620 32-423): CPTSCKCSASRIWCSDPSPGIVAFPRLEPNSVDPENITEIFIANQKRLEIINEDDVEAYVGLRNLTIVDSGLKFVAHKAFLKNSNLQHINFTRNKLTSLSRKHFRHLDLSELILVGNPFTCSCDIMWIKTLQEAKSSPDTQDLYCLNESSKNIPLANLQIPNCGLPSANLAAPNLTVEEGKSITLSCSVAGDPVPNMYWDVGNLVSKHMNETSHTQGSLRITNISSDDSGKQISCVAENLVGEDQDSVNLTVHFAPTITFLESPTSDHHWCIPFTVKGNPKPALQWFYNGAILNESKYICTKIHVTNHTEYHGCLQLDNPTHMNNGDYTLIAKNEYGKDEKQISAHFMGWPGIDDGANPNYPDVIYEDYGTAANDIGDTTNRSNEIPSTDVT

B1: trkA variant ?4A immunoadhesin (deletion of Val193 to Val282 of trkA) (Fc fusion, not shown: a dimerising Fc or GST)
chain: AAPCPDACCPHGSSGLRCTRDGALDSLHHLPGAENLTELYIENQQHLQHLELRDLRGLGELRNLTIVKSGLRFVAPDAFHFTPRLSRLNLSFNALESLSWKTVQGLSLQELVLSGNPLHCSCALRWLQRWEEEGLGGVPEQKLQCHGQGPLAHMPNASCGSFPASVQLHTAVEMHHWCIPFSVDGQPAPSLRWLFNGSVLNETSFIFTEFLEPAANETVRHGCLRLNQPTHVNNGNYTLLAANPFGQASASIMAAFMDNPFEFNPEDPIPDTNSTSGDPV
notes: 'Mature' variant
As to B1, the “fold reduction of affinity for NGF relative to native trkA” value in experiment [1] is ~2 fold.

B2: brain-derived neurotrophic factor (BDNF) (ligand, UniProt P23560 129-247, looked up)
chain: HSDPARRGELSVCDSISEWVTAADKKTAVDMSGGTVTVLEKVPVSKGQLKQYFYETKCNPMGYTKEGCRGIDKRHWNSQCRTTQSYVRALTMDSKKRIGWRFIRIDTSCVCTLTIKRGR
modifications: radiolabelled (iodinated) where used as tracer
notes: also called NT-2; labelled BDNF
As a reminder, the IC50 is the concentration that inhibits the measured activity by half. Low values mean higher potency, high ones lower potency. B2 displayed an IC50 in experiment [2] of 0.081 nM.

B3: trkC variant s5A immunoadhesin (trkC Val297 to Thr420 replaced with trkA Ser277 to Val402) (Fc fusion, not shown: a dimerising Fc or GST)
chain: CPANCVCSKTEINCRRPDDGNLFPLLEGQDSGNSNGNANINITDISRNITSIHIENWRSLHTLNAVDMELYTGLQKLTIKNSGLRSIQPRAFAKNPHLRYINLSSNRLTTLSWQLFQTLSLRELQLEQNFFNCSCDIRWMQLWQEQGEAKLNSQNLYCINADGSQLPLFRMNISQCDLPEISVSHVNLTVREGDNAVITCNGSGSPLPDVDWIVTGLQSINTHQTNLNWTNVHAINLTLVNVTSEDNGFTLTCIAENVVGMSNASSVQVNVSFPASVQLHTAVEMHHWCIPFSVDGQPAPSLRWLFNGSVLNETSFIFTEFLEPAANETVRHGCLRLNQPTHVNNGNYTLLAANPFGQASASIMAAFMDNPFEFNPEDPIPDTNSTSGDPV
notes: also called s5A chimera
In general, Kd refers to the constant that tells how readily two partners part at equilibrium. Higher therefore signals a looser complex. With B3, the Kd in experiment [3] stood at 0.0386 nM.

B4: neurotrophin-3 (NT-3) (ligand, UniProt P20783 139-257, looked up)
chain: YAEHKSHRGEYSVCDSESLWVTDKSSAIDIRGHQVTVLGEIKTGNSPVKQYFYETRCKEARPVKNGCRGIDDKHWNSQCKTSQTYVRALTSENNKLVGWRWIRIDTSCVCALSRKIGRT
modifications: radiolabelled (iodinated) where used as tracer
notes: also called labelled NT3; cold NT3
For the molecule B4, the IC50 in experiment [4] is 18 nM; in experiment [5], 20 nM.

For the origin of these results see patent US20040058416A1 (published 2004).
